Data set [1] in a line: Productivity of CPC acylase, pBC KS(+) plasmids in E. coli MC1061. The conditions noted are these: E. coli MC1061, LB, 25° C., 48 hr, crude enzyme. The protocol: To compare the productivity of CPC acylase by pBCPC plasmid derived E. coli transformant with that by pBSEM plasmid derived E. coli transformant, a CPC acylase crude enzyme solution obtained from each E. coli transformant was prepared as follows. Each E. coli transformant was inoculated into 3 ml of a LB medium (1% Bacto-Tryptone, 0.5% Yeast Extract, 0.5% NaCl) containing 25 μg/ml of chloramphenicol and cultured at 30° C., 200 rpm for 16 hr with vigorous shaking. 50 μl of the culture solution was transformed to 50 ml of a new LB medium containing […] of chloramphenicol and further cultured at 25° C., 200 rpm for 48 hr with vigorous shaking. The culture solution was subjected to centrifugation at 4° C., 8,000 rpm for 10 min to separate a precipitate and the precipitate washed twice with 0.1 M Tris-HCl buffer solution (pH 8.0). This precipitate was suspended in 5 ml of the same buffer solution and subjected to ultra-sonication at 4° C. for 10 min. […]
The enzyme activity of CPC acylase mutant to CPC was measured according to the method described by Park et al. with minor modifications as follows (Park, et al., Kor. J. Appl. Microbiol. Biotechnol. 23: 559-564, 1995). […] After the reaction, the absorbance of reaction mixture was measured at 415 nm and quantified by comparing with a calibration curve of standard material. […] Meanwhile, the specific activity of CPC acylase mutant for CPC was determined by measuring the amount of protein remaining in the enzyme solution according to the method described by Bradford (Bradford, M., Anal. Biochem. 72: 248-254, 1976) and representing it as an active unit corresponding to 1 mg of protein. The reactivity of CPC acylase mutant to CPC was determined by the following steps of adding the same amount of protein to a reaction mixture, performing an enzyme reaction for a fixed time, measuring the amount of 7-ACA produced in the reaction mixture, and representing it as a relative value. […]

The nature of data set [2]: One-step conversion of CPC into 7-ACA (HPLC). The settings on record: 50 mM CPC, pH 8.5, 25° C., 1 hr, purified enzyme. The format is biochemical. The protocol: E. coli BL21(DE3) transformant containing each one of pET29-TnS5αβ and pET29-S12 plasmids of Example <3-2> was cultivated in 5 l of a LB broth containing 20 μg/ml of kanamycin and 2% lactose at 25° C., 200 rpm for 72 hr with vigorous shaking. Further, E. coli MC1061(pBCPC) containing the wild-type CPC acylase gene was also cultivated in 10 l of a LB broth containing 25 μg/ml of chloramphenicol at 25° C., 200 rpm for 48 hr with vigorous shaking. After then, the wild-type CPC acylase, TnS5αβ and S12 CPC acylase mutants were purified from each culture broth according to the same method as described in Example <2-1>, respectively. The purified protein obtained above was subjected to dialysis with 50 mM phosphate buffer solution (pH 8.5), and the diffusate obtained by dialysis was used for a CPC conversion reaction.
After CPC was dissolved in 50 mM phosphate buffer solution (pH 8.5) at a final concentration of 50 mM, the purified enzyme solution dissolved in the same buffer solution was added to the CPC solution obtained above at a final concentration of 5 unit/mg to prepare […] of the reaction mixture. The reaction mixture was stirred at 25° C. for 1 hr to induce a CPC conversion reaction. At this time, in order to prevent pH of the reaction mixture from decreasing during the conversion reaction, when pH of the reaction mixture was reached to 8.4, 0.2 N NaOH solution was automatically injected to the reaction mixture by a pH regulator to constantly maintain pH of the reaction mixture at 8.5. 100 μl of the reaction mixture was taken from at a fixed time during the conversion reaction and immediately subjected to a HPLC analysis to quantify the amount of CPC and 7-ACA in the reaction mixture. […] In addition, the flow rate of mobile phase was 0.6 ml/min, the sample (20 μl) to be injected was prepared by appropriately diluting the reaction mixture with 50 mM phosphate buffer solution (pH 8.5), and its absorbance was detected at UV 250 nm.

B1: Wild-type: Pseudomonas sp. SE83 derived wild-type CPC acylase (AcyII), α-subunit SEQ ID NO: 4 and β-subunit SEQ ID NO: 5, from pBCPC (protein)
alpha: TMAAKTDREALQAALPPLSGSLSIPGLSAPVRVQRDGWGIPHIKASGEADAYRALGFVHAQDRLFQMELTRRKALGRAAEWLGAEAAEADILVRRLGMEKVCRRDFEALGAEAKDMLRAYVAGVNAFLASGAPLPIEYGLLGAEPEPWEPWHSIAVMRRLGLLMGSVWFKLWRMLALPVVGAANALKLRYDDGGQDLLCIPPGVEAERLEADLAALRPAVDALLKAMGG
beta: SNNWAVAPGRTATGRPILAGDPHRVFEIPGMYAQHHLACDRFDMIGLTVPGVPGFPHFAHNGKVAYCVTHAFMDIHDLYLEQFAEDGRTARFGNEFEPVAWRRDRIAVRGGADREFDIVETRHGPVIAGDPLEGAALTLRSVQFAETDLSFDCLTRMPGASTVAQLYDATRGWGLIDHNLVAGDVAGSIGHLVRARVPSRPRENGWLPVPGWSGEHEWRGWIPHEAMPRVIDPPGGLIVTANNRVVADDHPDYLCTDCHPPYRAERIMERLVASPAFAVDDAAAIHADTLSPHVGLLRARLEALGIQGSLPAEELRQTLIAWDGRMDAGSQAASAYNAFRRALTRLVTARSGLEQAIAHPFAAVPPGVSPQGQVWWAVPTLLRNDDAGMLKGWSWDEALSEALSVATQNLTGRGWGEEHRPRFTHPLSAQFPAWAALLNPVSRPIGGDGDTVLANGLVPSAGPEATYGALSRYVFDVGNWDNSRWVVFHGASGHPASPHYADQNAPWSDCAMVPMLYSWDRIAAEAVTSQELVPA
modifications: Pseudomonas sp. SE83
For the molecule B1, the “The productivity of CPC acylase (unit/l)” value in data set [1] is reported as “about 97 unit/l”; in data set [1] (listed as pBCPC (wild-type)), 97 unit/l. Moreover, in data set [2], the CPC conversion rate turned out to be 60%.

B2: S12: sixfold CPC acylase mutant, α-subunit SEQ ID NO: 7 and β-subunit SEQ ID NO: 8 (protein)
alpha: TMAAKTDREALQAALPPLSGSLSIPGLSAPVRVQRDGWGIPHIKASGEADAYRALGFVHAQDRLFQMELTRRKALGRAAEWLGAEAAEADILVRRLGMEKVCRRDFEALGAEAKDMLRAYAAGVNAFLASGAPLPIEYSLLGAEPEPWEPWHSIAVMRRLGLLMGSVWFKLWRMLALPVVGAANALKLRYDDGGQDLLCIPPGVEAERLEADLAALRPAVDALLKAMGG
beta: SNNWAVAPGRTATGRPILAGDPHRVFEIPGMYAQHHLACDRFDMIGLTVPGVPGFPHNAHNGKVAYCVTHAFMDTHDLYLEQFAEDGRTARFGNEFEPVAWRRDRIAVRGGADREFDIVETRHGPVIAGDPLEGAALTLRSVQFAETDLSFDCLTRMPGASTVAQLYDATRGWGLVDHNLVAGDVAGSIGHLVRARVPSRPRENGWLPVPGWSGEHEWRGWIPHEAMPRVIDPPGGLIVTANNRVVADDHPDYLCTDCHPPYRAERIMERLVASPAFAVDDAAAIHADTLSPHVGLLRARLEALGIQGSLPAEELRQTLIAWDGRMDAGSQAASAYNAFRRALTRLVTARSGLEQAIAHPFAAVPPGVSPQGQVWWAVPTLLRNDDAGMLKGWSWDEALSEALSVATQNLTGRGWGEEHRPRFTHPLSAQFPAWAALLNPVSRPIGGDGDTVLANGLVPSAGPEATYGALCRYVFDVGNWDNSRWVVFHGASGHPASPHYADQNAPWSDCAMVPMLYSWDRIAAEAVTSQELVPA
modifications: alpha-subunit of mutatnt CPC acylase S12 protein; beta-subunit of mutatnt CPC acylase S12 protein
For the molecule B2, in data set [1], the “The productivity of CPC acylase (unit/l)” value is given as 712 unit/l. In data set [2], the 7-ACA yield was at least 90% and the CPC conversion rate is on record as 98%.

Source of the values: patent publication US7592168B2, “Cephalosporin C acylase mutant and method for preparing 7-ACA using same” (Sandoz AG, priority 2003, dated 2009).
